Results as given in patent publication US20240279281A1, “Peptide Inhibitors of Interleukin-23 Receptor” (Janssen Pharmaceutica NV, priority 2023, published 2024).
Starred links: 1 amine or outer side, 2 acyl side, 3 side chain; linkers in the order of their positions; H or OH if unused. Positions of bridges follow the written chain, without caps; N, C: chain ends. Non-standard residues stand in square brackets, D forms with d. 2Nal6(Ph4(NMorph)) = 2-amino-3-(6-(4-morpholinophenyl)naphthalen-2-yl)propanoic acid, O=C([C@H](Cc1ccc2cc(-c3ccc(N4CCOCC4)cc3)ccc2c1)N[*:1])[*:2]; 6F2Nal = 2-amino-3-(6-fluoronaphthalen-2-yl)propanoic acid, O=C([C@H](Cc1ccc2cc(F)ccc2c1)N[*:1])[*:2]; Trp(7-(3-AcNH-Ph)) = CC(=O)Nc1cccc(-c2cccc3c(C[C@H](N)C(=O)O)c[nH]c23)c1; 2Nal(6-OH) = N[C@@H](Cc1ccc2cc(O)ccc2c1)C(=O)O; Trp(7-Me) = Cc1cccc2c(C[C@H](N)C(=O)O)c[nH]c12; AEF = NCCOc1ccc(C[C@H](N)C(=O)O)cc1; 3Pal = N[C@@H](Cc1cccnc1)C(=O)O; NMecPEG3a = not defined here; Pen = CC(C)(S)[C@H](N)C(=O)O; Thp = NC1(C(=O)O)CCOCC1; Sar = CNCC(=O)O

T1: interleukin-23 receptor (IL-23R) (UniProt Q5VWK5 24-629, limits assumed)
T1 sequence (looked up): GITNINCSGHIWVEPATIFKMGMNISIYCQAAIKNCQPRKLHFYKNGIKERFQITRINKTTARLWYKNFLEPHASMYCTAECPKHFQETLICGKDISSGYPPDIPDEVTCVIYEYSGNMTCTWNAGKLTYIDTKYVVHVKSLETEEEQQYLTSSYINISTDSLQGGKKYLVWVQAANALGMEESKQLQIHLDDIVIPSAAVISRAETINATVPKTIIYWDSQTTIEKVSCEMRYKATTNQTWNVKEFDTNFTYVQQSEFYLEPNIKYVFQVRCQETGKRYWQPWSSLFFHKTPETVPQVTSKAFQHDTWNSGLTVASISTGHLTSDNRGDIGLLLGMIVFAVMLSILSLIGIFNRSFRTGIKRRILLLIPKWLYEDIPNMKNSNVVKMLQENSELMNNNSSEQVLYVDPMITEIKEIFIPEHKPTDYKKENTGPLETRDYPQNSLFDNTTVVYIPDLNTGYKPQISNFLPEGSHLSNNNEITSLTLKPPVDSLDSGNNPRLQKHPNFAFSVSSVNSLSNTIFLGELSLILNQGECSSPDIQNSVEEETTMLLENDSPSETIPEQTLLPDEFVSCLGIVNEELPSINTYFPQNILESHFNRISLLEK


Target: T1, interleukin-23 receptor (IL-23R)
Test: cell-based or functional assay

Binder | IL23R Reporter Assay IC50 [nM]
XXNTXXXXXXENXX (MeCO-k(Me)3-Pen(3)-N-T-7(3NAcPh)W-K(Ac)-Pen(3)-AEF(G)-6OH2Nal-THP-E-N-5MePyridinAla-Sar-CONH2) [SEQ ID NO: 11] | < 10
Ac-[dR][Pen]NT[Trp(7-Me)]K(Ac)[Pen][AEF][6F2Nal][Thp]EN[3Pal][Sar]-NH2 (disulfide 2-7 (inferred)) [SEQ ID NO: 407] | < 10
cPEG3aCO-[Pen]NT[Trp(7-Me)]K(NMecPEG3a)[Pen][AEF][2Nal(6-OH)][Thp]EN[3Pal][Sar]-NH2 (disulfide 1-6 (inferred); not fully specified; printed as cPEG3aCO-Pen(3)-N-T-7MeW-K(NMecPEG3a)-Pen(3)-AEF-6OH2Nal-THP-E-N-3Pya-Sar-CONH2; reading uncertain) [SEQ ID NO: 319] | < 10
Ac-[dR][Pen]NT[Trp(7-(3-AcNH-Ph))]K(Ac)[Pen][AEF][2Nal(6-OH)][Thp]EN[3Pal][Sar]-NH2 (disulfide 2-7 (inferred)) [SEQ ID NO: 287] | < 10

The remaining lines, values ahead:

IL23R Reporter Assay IC50 [nM] | Binder
< 10 | Ac-[Pen]NT[Trp(7-Me)]K(Ac)[Pen][AEF][2Nal(6-OH)][Thp]EN[3Pal][Sar]-NH2 (disulfide 1-6 (inferred)) [SEQ ID NO: 428]
≥ 100 | Ac-[dR][Pen]NT[Trp(7-Me)]K(Ac)[Pen][AEF][2Nal6(Ph4(NMorph))][Thp]EN[Thp]-NH2 (disulfide 2-7 (inferred)) [SEQ ID NO: 432]
